Results on one substance are retold here after patent US20150368301.

This series deals with Unphosphorylated Nox1 peptide (KLKTQKIYF, "LocKiT").

As to PKC-βI (protein kinase C-βI), the “in vitro kinase assay, heat of phosphorylation measured by ITC; dot blot with p-STY antibody” value is listed as “The slope of the reaction following the heat of dilution confirms that the Nox1 peptide is a substrate for PKC-βI”.
